The target of assay [1] is T1, Aβ1-42 fibrils (Homo sapiens (species , …, UniProt P05067, biotin on 1% of the peptides in the fibrils for the bead assays; unlabeled fibrils on the blots).
T1 construct: amyloid beta peptide 1-42 (Aβ1-42), cut product of the amyloid precursor protein; also called Aβ fibrils; Aβ42 fibrils; source: synthetic peptide, bought: Anaspec; assembled into fibrils at 37 °C with 10% fibril seeds, purified by ultracentrifugation
The assay is described as follows: flow cytometry on beads; Aβ fibrils (1% biotinylated, 1 μM) immobilised on streptavidin Dynabeads, blocked with 10% milk; antibody dilutions in PBSB with 1% milk, 3 h, 25 °C; detected with goat anti-human Fc AF647; apparent affinity (EC50). Particulars: both partners purified. (In flow cytometry, cells or beads pass a laser one at a time.)

The next assay deals with T2, disaggregated Aβ1-42 (Homo sapiens (species , …, UniProt P05067)).
T2 construct: amyloid beta peptide 1-42 (Aβ1-42), cut product of the amyloid precursor protein; also called disaggregated (D) Aβ; disaggregated Aβ42; source: synthetic peptide, bought: Anaspec; dissolved in HFIP, then 50 mM NaOH, ultracentrifuged, neutralised
The assay is described as follows: far-Western, overlay or dot blot; immunodot blot: disaggregated Aβ and fibrils of Aβ, IAPP and α-synuclein spotted on nitrocellulose; antibodies at 10 nM in PBST with 1% milk, room temperature, 3 h; anti-human Fc HRP, X-ray film, 30 s or 45 min exposure. Particulars: both partners purified.

Assay [2] concerns the target T1, Aβ1-42 fibrils. The assay is described as above. The settings on record: both partners purified.
Assay [3] concerns the target T3, Aβ aggregates formed in vivo in 5xFAD transgenic mouse brain (human).
T3 construct: Aβ derived from human amyloid precursor protein (APP) expressed in 5xFAD mice; the APP transgene carries the Swedish (K670N/M671L), Florida (I716V) and London (V717I) mutations; The target stands in a brain homogenate or tissue section, not as a pure peptide; also called 5xFAD samples; Aβ plaques
The experiment in a line: far-Western, overlay or dot blot; immunodot blot: brain extracts (7 μg total protein) of 5xFAD and wild-type mice spotted on nitrocellulose; antibodies at 50 nM in TBST with 1% milk, overnight, 4 °C. The settings on record: one partner purified.

The target of another assay is T4, Aβ11-42 fibrils (Homo sapiens (species , …, UniProt P05067)).
T4 construct: amyloid beta peptide with N-terminal deletion, Aβ11-42; Amyloid fibrils; source: synthetic peptide, bought: Anaspec; assembled into fibrils, purified by ultracentrifugation
T4 chain: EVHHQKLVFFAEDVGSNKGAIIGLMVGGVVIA
The assay is described as follows: far-Western, overlay or dot blot; immunodot blot: fibrils of Aβ1-42 and N-terminal truncations spotted on nitrocellulose at equal Thioflavin T fluorescence; antibodies at 10 nM in PBST with 1% milk; anti-human Fc HRP, 3 min exposure. Particulars: both partners purified.

The target in a further assay is T5, Aβ5-42 fibrils (Homo sapiens (species , …, UniProt P05067)).
T5 construct: amyloid beta peptide with N-terminal deletion, Aβ5-42; Amyloid fibrils; source: synthetic peptide, bought: Bachem; assembled into fibrils, purified by ultracentrifugation
The assay is described as above. Particulars: both partners purified.

Another assay concerns the target T6, Aβ4-42 fibrils (Homo sapiens (species , …, UniProt P05067)).
T6 construct: amyloid beta peptide with N-terminal deletion, Aβ4-42; Amyloid fibrils; source: synthetic peptide, bought: Bachem; assembled into fibrils, purified by ultracentrifugation
The description is as above. Particulars: both partners purified.

The next assay concerns the target T7, Aβ3-42 fibrils (Homo sapiens (species , …, UniProt P05067)).
T7 construct: amyloid beta peptide with N-terminal deletion, Aβ3-42; Amyloid fibrils; also called fibrils without the first two residues; source: synthetic peptide, bought: Bachem; assembled into fibrils, purified by ultracentrifugation
Described as above. The settings on record: both partners purified.

Another assay deals with T8, Aβ2-42 fibrils (Homo sapiens (species , …, UniProt P05067)).
T8 construct: amyloid beta peptide with N-terminal deletion, Aβ2-42; Amyloid fibrils; also called fibrils without the first residue; source: synthetic peptide, bought: Bachem; assembled into fibrils, purified by ultracentrifugation
The assay is described as above. The settings on record: both partners purified.

What is called EC50 is the concentration giving half of the maximal effect.

Changes are numbered by the printed parent chain. Where “and” joins values, the source holds several entries; their conditions need not be identical. Equal entries are not always repeated.

B1: AF1 (scFv, V domains shown)
VH: EVQLVESGGGLVQPGGSLRLSCAASGFNIKDTYIHWVRQAPGKGLEWVARIYPTNGYTRYADSVKGRFTISADTSKNTAYLQMNSLRAEDTAVYYCARDGYDGSYFVGYDYNDFYDYWGQGTLVTVSS
VL: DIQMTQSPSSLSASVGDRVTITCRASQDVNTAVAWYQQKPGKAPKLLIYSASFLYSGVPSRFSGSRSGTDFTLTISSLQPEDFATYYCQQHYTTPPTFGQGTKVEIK
notes: scFv-Fc fusion protein; also called lead antibody; parental antibody; source: HEK293-6E expression plasmids, transfected cells, purified from the medium (Protein A)
Take B1: the EC50 with Aβ1-42 fibrils [1] came out at 99 nM.

B2: clone 93 (scFv, V domains shown)
VH: B1 VH with T54S, D62G
VL: DIQMTQSPSSLSASVGDRVTITCRASQNVYNAVTWYQQKPGKAPKLLIYSASFLYSGVPSRFSGSRSGTDFTLTISSLQPEDFATYYCQQHNTYPPTFGQGTKVEIK
notes: scFv-Fc fusion protein; source: HEK293-6E expression plasmids, transfected cells, purified from the medium (Protein A)
For B2, the binding result (with disaggregated Aβ1-42; in the assay with Aβ1-42 fibrils [2]; in [3]) was “binds” each time.

B3: clone 97 (scFv, V domains shown)
VH: B1 VH with T54A, N55S, Y57A
VL: B2 VL with Y30A, N31Y, N92S
notes: scFv-Fc fusion protein; Parent of 97A3; source: HEK293-6E expression plasmids, transfected cells, purified from the medium (Protein A)
For the molecule B3, the EC50 in the assay with Aβ1-42 fibrils [1] is 8 nM and 18 nM.

B4: crenezumab (variable domains grafted onto an IgG1 scaffold with a human Fc fragment) (antibody, V domains shown)
VH: EVQLVESGGGLVQPGGSLRLSCAASGFTFSSYGMSWVRQAPGKGLELVASINSNGGSTYYPDSVKGRFTISRDNAKNSLYLQMNSLRAEDTAVYYCASGDYWGQGTTVTVSS
VL: DIVMTQSPLSLPVTPGEPASISCRSSQSLVYSNGDTYLHWYLQKPGQSPQLLIYKVSNRFSGVPDRFSGSGSGTDFTLKISRVEAEDVGVYYCSQSTHVPWTFGQGTKVEIK
notes: heavy-chain variable domain of crenezumab; light-chain variable domain of crenezumab; IgG1 here; source: HEK293-6E expression plasmids, transfected cells, purified from the medium (Protein A)
In the case of B4, the binding result with Aβ11-42 fibrils, in the assay with Aβ5-42 fibrils, with Aβ4-42 fibrils, with Aβ3-42 fibrils and with Aβ2-42 fibrils was “binds” in each case.

For the origin of these results see publication PMC8081927 (The Journal of Biological Chemistry, 2021).
